In patent US20250042994A1:

B1: F4.180.1 (antibody, human IgG1, V domains shown)
VH: EVQLQQSAPELVKPGASVKMSCKTSGYTFTENIIHWVKQTHGKSLEWIGGINPDNGGTSYHQKFKGRTTLTIDKSSSTAYMELRSLTSDDSAVFFCARQAPLYWYFDIWGAGTTVTVSS
VL: DIVLTQSPASLAVSLGQRATISCRASESVDSYGNSLMHWFQQKPGQPPRLLIYRASNLESGIPARFSGSGSRTDFTLTITPVEADDVATYYCQQSNEDPWTFGGGTKLEIK
B2: F3.23.10 (antibody, human IgG1, V domains shown)
VH: EFQLQQSGPELVKPGASVKISCKASDYSFTDYNMNWVKQSNGASLEWIGIINPNFGSTSYNQKFKGKATLTVDQSSSTAFMQLNSLTSEDSAVYYCARSEYYGSSGFAYWGQGTLVTVSA
VL: DVVVTQTPLSLPVSFGDQVSISCRSSQSLVNSYGNTYLSWYLHKPGQSPQLLIYGISNRFSGVPDRFSGSGSGTDFTLKITTIKPEDLGMYYCLQGTHQPWTFGGGTKLEIK

Target: cynomolgus monkey CD19 on peripheral blood B cells (cynomolgus monkey (Macaca fascicularis))
Assay: FACS, cynomolgus PBMC, CD20+ B cells

Row | Proportion of chimeric antibody positive cells to B cells (%) at 1 nM [%] | Proportion of chimeric antibody positive cells to B cells (%) at 10 nM [%] | Proportion of chimeric antibody positive cells to B cells (%) at 100 nM [%] | Binder
1 | 2 | 3 | 9 | B1
2 | 2 | 1 | 12 | B2
